Test results taken from paper PMC6199252, “Characterization and improved properties of Glutamine synthetase from Providencia vermicola by site-directed mutagenesis” (Scientific Reports, 2018).

Target: the molecule itself
Experiment: SEC; tag-free purified protein on Superose 6 10/300 GL, 25 mM Tris-HCl pH 7.5, 150 mM NaCl; oligomer judged from the elution volume; data not shown

B1: Glutamine synthetase from Providencia vermicola (enzyme, UniProt A0AAX3RWL7 1-469, looked up)
chain: MSSEHVLSLIEEHKIKFIDLRFTDTKGKEQHITIPAHQVNEDFFEEGKMFDGSSIGGWKGINESDMVLMPDPSTAMLDPFFADPTLIIRCDILEPGTMQGYDRDPRSISQRAEDFLRSSGIADTVLFGPEPEFFIFDDIRFGNSMHSSYYHIDDIEAAWNTGTKYEGGNKGHRPGVKGGYFPVPPVDSSQDLRSAMCTTMEEMGLVVEAHHHEVATAGQNEVACRFNTMTKKADETQIYKYVVHNVAHAYGKTATFMPKPLVGDNGSGMHCHMSLSKDGINLFAGDKYGGLSEMALYYIGGIIKHARALNAFTNPTTNSYKRLVPGFEAPVMLAYSARNRSASIRIPVVASTKARRIEVRFPDPAANPYLAFAAQLMAGLDGIINKIHPGDAMDKNLYDLPPEEAKEIPTVAGSLEEALNELDKNREFLTRGGVFTNDAIDAYIELLRNDIQRVRMTPHPLEFEMYYSV
notes: Glutamine synthetase (GSI beta type, EC 6.3.1.2) of Providencia vermicola strain CGS6, cloned from genomic DNA; ORF of 1410 base pairs encoding 469 amino acids; Cloned between BamHI and XhoI of pGEX-6P-1; also called PveGS; GS; source: E. coli BL21 (DE3), pGEX-6p-1-PveGS, purified (GST Gene Fusion System, eluted from the GST tag by 3C protease); copies: 12
- stoichiometry N: 12
